B1: KLHL6 wild type fused to C-terminal BioID2 [human] / LuZP1 [human (endogenous in SuDHL5 and U2932)] (parent)
chain 1: MLMAGQRGAWTMGDVVEKSLEGPLAPSTDEPSQKTGDLVEILNGEKVKFDDAGLSLILQNGLETLRMENALTDVILCVDIQEFSCHRVVLAAASNYFRAMFCNDLKEKYEKRIIIKGVDAETMHTLLDYTYTSKALITKQNVQRVLEAANLFQFLRMVDACASFLTEALNPENCVGILRLADTHSLDSLKKQVQSYIIQNFVQILNSEEFLDLPVDTLHHILKSDDLYVTEEAQVFETVMSWVRHKPSERLCLLPYVLENVRLPLLDPWYFVETVEADPLIRQCPEVFPLLQEARMYHLSGNEIISERTKPRMHEFQSEVFMIIGGCTKDERFVAEVTCLDPLRRSRLEVAKLPLTEHELESENKKWVEFACVTLKNEVYISGGKETQHDVWKYNSSINKWIQIEYLNIGRWRHKMVVLGGKVYVIGGFDGLQRINNVETYDPFHNCWSEAAPLLVHVSSFAATSHKKKLYVIGGGPNGKLATDKTQCYDPSTNKWSLKAAMPVEAKCINAVSFRDRIYVVGGAMRALYAYSPLEDSWCLVTQLSHERASCGIAPCNNRLYITGGRDEKNEVIATVLCWDPEAQKLTEECVLPRGVSHHGSVTIRKSYTHIRRIVPGAVSV
chain 2: MAEFTSYKETASSRHLRFKLQSLSRRLDELEEATKNLQKAEDELLDLQDKVIQAEGSNSSMLAEIEVLRQRVLRIEGKDEEIKRAEDLCRLMKEKLEEEENLTRELKSEIERLQKRMAELEKLEEAFSRSKNDCTQLCLSLNEERNLTKKISSELEMLRVKVKELESSEDRLDKTEQSLASELEKLKSLTLSFVSERKYLNEKEKENEKLIKELTQKLEQNKKMNRDYTRNASNLERNDLRIEDGISSTLPSKESRRKGGLDYLKQVENETRNKSENEKNRNQEDNKVKDLNQEIEKLKTQIKHFESLEEELKKMKSKNNDLQDNYLSEQNKNKLLASQLEEIKLQIKKQKELENGEVEGEDAFLSSKGRHERTKFRGHGSEASVSKHTARELSPQHKRERLRNREFALNNENYSLSNRQVSSPSFTNRRAAKASHMGVSTDSGTQETKKTEDRFVPGSSQSEGKKSREQPSVLSRYPPAAQEHSKAWKGTSKPGTESGLKGKVEKTTRTFSDTTHGSVPSDPLGRADKASDTSSETVFGKRGHVLGNGSQVTQAANSGCSKAIGALASSRRSSSEGLSKGKKAANGLEADNSCPNSKAPVLSKYPYSCRSQENILQGFSTSHKEGVNQPAAVVMEDSSPHEALRCRVIKSSGREKPDSDDDLDIASLVTAKLVNTTITPEPEPKPQPNSREKAKTRGAPRTSLFENDKDAGMENESVKSVRASTNTMELPDTNGAGVKSQRPFSPREALRSRAIIKPVIVDKDVKKIMGGSGTETTLEKQKPVSKPGPNKVTSSITIYPSDSSSPRAAPGEALRERHTSTSNIQVGLAELTSVSNHVSSPFELSIHKHDITLQLAEAERMADGPLKDRPETVVSRSSIIIKPSDPVERNSHAPPAETIRWKSHSAPSEVGFSDARHVTVRNAWKSRRDLKSLEDPPTRIGKNVESTNSNAYTQRSSTDFSELEQPRSCLFEQGTRRVGPSSGDAPEPSSRRTQSSLTVSEVLTRRNRVGDTITVAAWNHSASMEEEGEDCTLSVYRQLHNSLDPSELPGKQGLPESGRVRAEERLRPTRPCAEEN
B2: KLHL6 wild type, C-terminal Strep-HA tag (KLHL6-strHA) [human] / adapter protein BANK1 [human (endogenous in SuDHL5 and U2932)] (parent)
chain 1: B1 chain 1
chain 2: MLPAAPGKGLGSPDPAPCGPAPPGNTKDIIMIYEEDAEEWALYLTEVFLHVVKREAILLYRLENFSFRHLELLNLTSYKCKLLILSNSLLRDLTPKKCQFLEKILHSPKSVVTLLCGVKSSDQLYELLNISQSRWEISTEQEPEDYISVIQSIIFKDSEDYFEVNIPTDLRAKHSGEISERKEIEELSEASRNTIPLAVVLPTEIPCENPGEIFIILRDEVIGDTVEVEFTSSNKRIRTRPALWNKKVWCMKALEFPAGSVHVNVYCDGIVKATTKIKYYPTAKAKECLFRMADSGESLCQNSIEELDGVLTSIFKHEIPYYEFQSLQTEICSQNKYTHFKELPTLLHCAAKFGLKNLAIHLLQCSGATWASKMKNMEGSDPAHIAERHGHKELKKIFEDFSIQEIDINNEQENDYEEDIASFSTYIPSTQNPAFHHESRKTYGQSADGAEANEMEGEGKQNGSGMETKHSPLEVGSESSEDQYDDLYVFIPGADPENNSQEPLMSSRPPLPPPRPVANAFQLERPHFTLPGTMVEGQMERSQNWGHPGVRQETGDEPKGEKEKKEEEKEQEEEEDPYTFAEIDDSEYDMILANLSIKKKTGSRSFIINRPPAPTPRPTSIPPKEETTPYIAQVFQQKTARRQSDDDKFCGLPKKQDRARIESPAFSTLRGCLTDGQEELILLQEKVKNGKMSMDEALEKFKHWQMGKSGLEMIQQEKLRQLRDCIIGKRPEEENVYNKLTIVHHPGGKETAHNENKFYNVHFSNKLPARPQVEKEFGFCCKKDH
B3: KLHL6 wild type, C-terminal Strep-HA tag (KLHL6-strHA) [human] / KLHL26 [human (endogenous in SuDHL5)] (parent)
chain 1: B1 chain 1
chain 2: MAESGGSSGGAGGGGAFGAGPGPERPNSTADKNGALKCTFSAPSHSTSLLQGLATLRAQGQLLDVVLTINREAFPAHKVVLAACSDYFRAMFTGGMREASQDVIELKGVSARGLRHIIDFAYSAEVTLDLDCVQDVLGAAVFLQMLPVVELCEEFLKAAMSVETCLNIGQMATTFSLASLRESVDAFTFRHFLQIAEEEDFLRLPLERLVFFLQSNRLQSCAEIDLFRAAVRWLQHDPARRPRASHVLCHIRFPLMQSSELVDSVQTLDIMVEDVLCRQYLLEAFNYQVLPFRQHEMQSPRTAVRSDVPSLVTFGGTPYTDSDRSVSSKVYQLPEPGARHFRELTEMEVGCSHTCVAVLDNFVYVAGGQHLQYRSGEGAVDACYRYDPHLNRWLRLQAMQESRIQFQLNVLCGMVYATGGRNRAGSLASVERYCPRRNEWGYACSLKRRTWGHAGAASGGRLYISGGYGISVEDKKALHCYDPVADQWEFKAPMSEPRVLHAMVGAGGRIYALGGRMDHVDRCFDVLAVEYYVPETDQWTSVSPMRAGQSEAGCCLLERKIYIVGGYNWRLNNVTGIVQVYNTDTDEWERDLHFPESFAGIACAPVLLPRAGTRR
B4: KLHL6 wild type, C-terminal Strep-HA tag (KLHL6-strHA) [human] / KLHL7 [human (endogenous in SuDHL5)] (parent)
chain 1: B1 chain 1
chain 2: MAASGVEKSSKKKTEKKLAAREEAKLLAGFMGVMNNMRKQKTLCDVILMVQERKIPAHRVVLAAASHFFNLMFTTNMLESKSFEVELKDAEPDIIEQLVEFAYTARISVNSNNVQSLLDAANQYQIEPVKKMCVDFLKEQVDASNCLGISVLAECLDCPELKATADDFIHQHFTEVYKTDEFLQLDVKRVTHLLNQDTLTVRAEDQVYDAAVRWLKYDEPNRQPFMVDILAKVRFPLISKNFLSKTVQAEPLIQDNPECLKMVISGMRYHLLSPEDREELVDGTRPRRKKHDYRIALFGGSQPQSCRYFNPKDYSWTDIRCPFEKRRDAACVFWDNVVYILGGSQLFPIKRMDCYNVVKDSWYSKLGPPTPRDSLAACAAEGKIYTSGGSEVGNSALYLFECYDTRTESWHTKPSMLTQRCSHGMVEANGLIYVCGGSLGNNVSGRVLNSCEVYDPATETWTELCPMIEARKNHGLVFVKDKIFAVGGQNGLGGLDNVEYYDIKLNEWKMVSPMPWKGVTVKCAAVGSIVYVLAGFQGVGRLGHILEYNTETDKWVANSKVRAFPVTSCLICVVDTCGANEETLET
B5: KLHL6 wild type, C-terminal Strep-HA tag (KLHL6-strHA) [human] / endogenous KLHL6 [human (endogenous in SuDHL5 and SuDHL4)] (parent)
chain 1: B1 chain 1
chain 2: B1 chain 1

Variants of: B1
Assay: BioID2 proximity labelling, mass spectrometry
Conditions: with LuZP1 [human (endogenous in SuDHL5 and U2932)]; SuDHL5 cells; read off a plot
With chain 1 E568K the screen value was 2.4 log2.

Variants of: B1
Assay: BioID2 proximity labelling, mass spectrometry (spectral counts)
Conditions: with LuZP1 [human (endogenous in SuDHL5 and U2932)]; SuDHL5 cells; read off a plot
chain 1 E568K was tested, and the response (spectral counts) was 1.5. Variant chain 1 E547K has a response (spectral counts) of 1.5. For chain 1 L65P, the response (spectral counts) was 13.

Variants of: B2
Assay: AP-MS (Strep affinity purification, spectral counts)
Conditions: with adapter protein BANK1 [human (endogenous in SuDHL5 and U2932)]; SuDHL5 cells; read off a plot
Work on chain 1 E568K yielded a response (spectral counts) of 2. chain 1 L65P showed a response (spectral counts) of 0.5. For chain 1 L90F, the response (spectral counts) was 7.5.

Variants of: B3
Assay: as above
Conditions: with KLHL26 [human (endogenous in SuDHL5)]; SuDHL5 cells; read off a plot
For chain 1 E568K, the response (spectral counts) was 15. For chain 1 L65P, the response (spectral counts) was 0. chain 1 L90F gave a response (spectral counts) of 0.5.

Variants of: B3
Assay: AP-MS (Strep affinity purification, mass spectrometry; DESeq2 model)
Conditions: with KLHL26 [human (endogenous in SuDHL5)]; SuDHL5 cells; WT eight replicates, L65P four replicates; read off a plot
In the case of chain 1 L65P, the screen value is reported as 4.4 log2.

Same assay, conditions: with KLHL26 [human (endogenous in SuDHL5)]; SuDHL5 cells; WT eight replicates, L90F eight replicates; read off a plot
For chain 1 L90F, the screen value was 2.7 log2.

Variants of: B4
Assay: AP-MS (Strep affinity purification, spectral counts)
Conditions: with KLHL7 [human (endogenous in SuDHL5)]; SuDHL5 cells; read off a plot
Work on chain 1 E568K yielded a response (spectral counts) of 20. chain 1 L65P was tested, and the response (spectral counts) was 0. chain 1 L90F gave a response (spectral counts) of 0.

Variants of: B4
Assay: AP-MS (Strep affinity purification, mass spectrometry; DESeq2 model)
Conditions: with KLHL7 [human (endogenous in SuDHL5)]; SuDHL5 cells; WT eight replicates, L65P four replicates; read off a plot
chain 1 L65P was tested, and the screen value was 4.9 log2.

Same assay, conditions: with KLHL7 [human (endogenous in SuDHL5)]; SuDHL5 cells; WT eight replicates, L90F eight replicates; read off a plot
Variant chain 1 L90F has a screen value of 4.9 log2.

Variants of: B5
Assay: AP-MS (spectral counts of the WT, leucine-90 peptide in the L90F bait pull-down)
Conditions: with endogenous KLHL6 [human (endogenous in SuDHL5 and SuDHL4)]; SuDHL5 cells; read off a plot
With chain 1 L90F the response (spectral counts) was 1.

Variants of: B5
Assay: AP-MS (spectral counts of the WT, leucine-65 peptide in the L65P bait pull-down)
Conditions: with endogenous KLHL6 [human (endogenous in SuDHL5 and SuDHL4)]; SuDHL5 cells; read off a plot
chain 1 L65P was tested, and the response (spectral counts) was 5.

Reference: publication PMC11369598
